This note sets out measurements from a protein production outcome set (Wang et al. 2014).

A short description of this data set: label from the status in PepcDB records.

For “LRKSEERWQLAIVGTDEAIWDWDILTNHTYRSDRWFEMLGYERHEMSTFDDEWSIRIHPDDYNRVMAAQAAYLRREVPVYYTEYRLRCKDGNYKWFRSRAKGVWDEQGNPIRLVGSLGDITGRKSIELD”, the protein production result is “not failed”.

As to “LRQQRLIWVVLALSCVIVISLLMLWRYTRFRSEAEAALIAETGFRRAMENSMSTGMRVLDMEGRIAYVNPAFCRMIGWNEADLIGRSPPFPYWVPGRHDQHQHTLEVLTSGKTPSSGLEVEAQRRDGSRFTARMYVSPLLDPNGDQIGWMTSMTDIT”, the protein production result is “failed”.

Consider “LRVFSSDGKLIAEFGEMRRTPIRFAEIPPNFINALLSAEDDNFANHYGVDPSSLMRAATQLVKSGHIQSGGSTITMQVAKNFFLTSERSFSRKTTEILLALQIERQLTKDEILELYVNKIYLGNRAYGIEAAAQVYYGKSIRDVSLAQMAMIAGLPKAPSRFNPLANA”, for which the protein production result was “failed”.

“LSQNTLAENIYNIIISDISRKWALKDISDSLYMSCSTLKRKLKQEHTSFSEVYLNARMNKATKLLRNSEYNITRVAYMCGYDSASYFTCVFKKHFKTTPSEFLAFLSSSRHQ”: the protein production entry was “failed”.

Consider “LTRSNISYFSIGSGTPIIFLHGLSLDKQSTCLFFEPLSNVGQYQRIYLDLPGMGNSDPISPSTSDNVLETLIEAIEEIIGARRFILYGHSYGGYLAQAIAFHLKDQTLGVFLTCPVITADHSKRLTGKHINILEEDINPVENKEYFADFLSMNVIINNQAWHDYQNLIIPGLQKEDKTFIDQLQNNYSFTFEEKLKNINYQFPFKIMVGRNDQVVGYQEQLKLINHNENGEIVLLNRTGHNLMIDQREAVGFHFDLFLDELNSN”, for which the protein production entry is recorded as “failed”.

On to “LVEDFERELGRMLSPFELEDLQKTVSDDKTDPDLVRSALREAVFNGKTNWNYIQAILRNWRHEGISTLRQVEE”, for which the protein production entry was “not failed”.

As to “LVTISSTSAASLPTMPPSGYDQVRNGVPRGQVVNISYFSTATNSTRPARVYLPPGYSKDKKYSVLYLLHGIGGSENDWFEGGGRANVIADNLIAEGKIKPLIIVTPNTNAAGPGIADGYENFTKDLLNSLIPYIESNYSVYTDREHRAIAGLSMGGGQSFNIGLTNLDKFAYIGPISAAPNTYPNERLFPDGGKAAREKLKLLFIACGTNDSLIGFGQRVHEYCVANNINHVYWLIQGGGHDFNVWKPGLWNFLQMADEAGLTRDGNT”, the protein production result is given as “not failed”.

Consider “LYDQGGPVEILPFLYLGSAYHASRKDMLDALGITALINVSANCPNHFEGHYQYKSIPVEDNHKADISSWFNEAIDFIDSIKNAGGRVFVHCQAGISRSATICLAYLMRTNRVKLDEAFEFVKQRRSIISPNFSFMGQLLQFESQVLAPHCSAEAGSPAMAVLDRGTSTTTVFNFPVSIPVHSTNSALSYLQSPITTSPSC”, for which the protein production entry is listed as “failed”.

With “LYQGFEKEFGRPLSPIELEMIGQWLNTDHYSPELIRLALREAVLNQAYSLKYIDRILLAWERKNITTKEQVAA”, the protein production result is on record as “failed”.

For the sequence “MAAALPRTLGELQLYRILQKANLLSYFDAFIQQGGDDVQQLCEAGEEEFLEIMALVGMASKPLHVRRLQKALRDWVTNPGLFNQPLTSLPVSSIPIYKLPEGSPTWLGISCSSYERSSNAREPHLKIPKCAATTCVQSLGQGKSDVVGSLALQSVGESRLWQGHHATESEHSLSPADLGSPASPKESSEALDAAAALSVAECVERMAPTLPKSDLNEVKELLKTNKKLAKMIGHIFEMNDDDPHKEEEIRKYSAIYGRFDSKRKDGKHLTLHELTVNEAAAQLCVKDNALLTRRDELFALARQISREVTYKYTYRTTKSKCGERDELSPKRIKVEDGFPDFQDSVQTLFQQARAKSEELAALSSQQPEKVMAKQMEFLCNQAGYERLQHAERRLSAGLYRQSSEEHSPNGLTSDNSDGQGERPLNLRMPNLQNRQPHHFVVDGELSRLYPSEAKSHSSESLGILKDYPHSAFTLEKKVIKTEPEDSR”, the protein production result is “not failed”.

Take “MAADKLADEVACMANTPGGGALIVGIEDKTGRIIGTELDIDWLRQGIFTRIDVAPDVVAKRVLGQRVLAIYVAAAAEPIEDTSDRLRWRVGDSCRPVDLEHHHHHH”: the protein production entry is given as “failed”.

Consider “MAADVVFPGLCVFLSAGLLLALVHGRRVGRRADRQCRHLAAITDTMSEGFYVVDGDDRIVMANAAAGRILGYTQDDLIGACAHALFHARSADDPDPVPLEECRLNRAVRERRAAFLDVGHFRHRSGKIIAVEVSCNPVADTLAEEGRRGGLLGWLLDGDDAEGAPGALLSMVTFVDITARRESEAAVIKLSHAVEQSSASIVITDADGRIEYANPAFTKISGYTAQEAIGRRPSILKSGLVPAETYRALWQTITNGGEWRGEFHNRRKDGTLYWEMASISPIRDARGKITNFVAVKDDVTERKAIESELYHRANYDALTGLPNRQLLLDRVSTALDLARRHDRRVAVMFMDIDRFKQINDSMGHAAGDVLLKQAASRLAAVLRPQDTLGRLGGDEFLVVAPGLRWESEATALASRLLEVARRPFTIDGREVYVSVSIGVSLGPVDGTTAQALMRNADAAMYLAKGGGRDAAHFFTPDIEAAARRRMLIENGLRTAVSDGSLYLALQPIIACADHTMIKAEALLRWTHPQLGGVPPSEFIPIAEESGLIRAIGAWVIEEAARLLVSLDPPRDGAFRLGINIASSQFTGGLHHHVAGMLARYDLDPRMLEIEITERMLLDPSPAILEQVDALRAMGVSIAIDDFGTGYSALSYLSVFHVDTLKIDRAFVSVMTDEARSQALIGAIVALGHELGCAVVAEGVETADQARLLGELAVDALQGYFLGRPTTAEAISDRLNPGTGRPYDKAALGTEFAEGGDLGLSVGAL”, for which the protein production entry was “failed”.

As for “MAAFQIANKTVGKDAPVFIIAEAGINHDGKLDQAFALIDAAAEAGADAVKFQMFQADRMYQKDPGLYKTAAGKDVSIFSLVQSMEMPAEWILPLLDYCREKQVIFLSTVCDEGSADLLQSTSPSAFKIASYEINHLPLLKYVARLNRPMIFSTAGAEISDVHEAWRTIRAEGNNQIAIMHCVAKYPAPPEYSNLSVIPMLAAAFPEAVIGFSDHSEHPTEAPCAAVRLGAKLIEKHFTIDKNLPGADHSFALNPDELKEMVDGIRKTEAELKQGITKPVSEKLLGSSYKTTTAIEGEIRNFAYRGIFTTAPIQKGEAFSEDNIAVLRPGQKPQGLHPRFFELLTSGVRAVRDIPADTGIVWDDILLKDSPFHE”, the protein production entry is recorded as “not failed”.

Take “MAAHDDDMNRGIRPGRGSDDPAGQIAYLEQEIAVLRRKLADSPRHTRILEERIVELQTNLAGVSAQNERLANTLREARDQIVALKEEVDRLAQPPAGFGVFLTANEDGTADIFTGGRKLRVNVSPSVELEELRRGQELMLNEALNVVEAMEYESVGDIVTLKEILEDGERALVVGHTDEERVVRLAEPLLDVTIRPGDALLLEPRSGYVYEVVPKSEVEELVLEEVPDIGYEQIGGLGNQIEMIRDAVELPYLYPDLFKEHELRPPKGVLLYGPPGCGKTLIAKAVANSLAKKVAEVTGQATGKSFFLNIKGPELLNKYVGETERQIRLVFQRAREKASEGTPVIVFFDEMESLFRTRGSGVSSDVENTIVPQLLAEIDGVEGLQNVVVIGASNREDMIDPAILRPGRLDVKIKIERPDAEAAKDIFGKYLTERLPLHTEDVGEHGGDRSATVHGMIQTAVEQMYAESEENRFLEVTYANGDKEVLYFKDFNSGAMIENIVGRAKKMAIKDFLEHSQKGLRVSHLLQACVDEFKENEDLPNTTNPDDWARISGKKGERIVYIRTLITGKQGADTGRSIDTVANTGQYL”: the protein production entry is “failed”.

With “MAAKFHLKKAKDGQFHFNLHAANGEIILTSELYKAKDSALGGIESVRKNSQRDGAFEVKPANNGKFHFVLKATNGQVVGQSQLYASQANAEAGVQSVKRATPEAGLSDESLEHHHHHH”, the protein production result was “not failed”.

With “MAALRYAGLDDTDSEDELPPGWEERTTKDGWVYYANHTEEKTQWEHPKTGKRKRVAGDLPYGWEQETDENGQVFFVDHINKRTTYLDPRLAFTVDDNPTKPTTRQRYDGSTTAMEILQGRDFTGKVVVVTGANSGIGFETAKSFALHGAHVILACRNMARASEAVSRILEEWQQGAATTVYCAAVPELEGLGGMYFNNCCRCMPSPEAQSEETARTLWALSERLIQERLGSQSG”, the protein production result is “not failed”.

Turning to “MAAMPKPAAFWNDRFANEEYVYGEAPNRFVASAARTWLPEAGEVLLLGAGEGRNAVHLAREGHTVTAVDYAVEGLRKTERLATEAGVEVEAIQADVREWKPARAWDAVVVTFLHLPADERPGLYRLVQRCLRPGGRLVAEWFRPLEHHHHHH”, the protein production entry is “failed”.

As to “MAAMQWCGAMTRRIMMTQRTSAALNCSARYSSLSPACAAPAVSEMDLCGRGDKKTKKGKRFKGSYGNSRGKKQKMIERIKDKLELPRSTPWPLPFKLI”, the protein production entry was “not failed”.

For the sequence “MAANDRAAAPGKSGGSAGADGLMRASLSAVAPGTSLRDGLERVLRGNTGGLIVLGSDKTVESMCTGGFVLDVEFTATRLRELCKLDGGIVLSSDLSKILRAGVQLLPDPTIPTEETGTRHRTADRVSKQVGFPVVSVSQSMRLIALYVDGQRRVLEDSAAILSRANQALATLERYKLRLDEVAGTLSALEIEDLVTVRDVSAVAQRLEMVRRIATEIAEYVVELGTDGRLLALQLDELIAGVEPERELVVRDYVPEPTAKRSRTVDEALAELDKLSHAELLELSTVARALGYTGSPETLDSAVSPRGFRLLAKVPRLPGAIIDRLVEHFGGLQKLLAASVDDLQTVDGVGEARARSVREGLSRLAESSILERYV”, the protein production entry is “not failed”.

“MAANGVRRALQASSSSGKILFGRSSAATSASKIGKSAGIAFGNGSSSSTRPSLRRLTFSRVPVELSAGISLIPLHSVTASALLTSLLSLSNQNWSCLSEGKFFTCVHDLCLELKLILNFCFQTRSKCSLNW”: the protein production entry is listed as “failed”.

In the case of “MAANNSIEWRAVCEKFRLAQELSEIESKKDPENNPFRSKYKARDLLKEIHCSLKKIEIEEQGEAGDEADCESSQTADGEPEDGFEKTFTGDSAAGLRAARLAVLQYHLGVNHIETEELSAGELHLMVCMKLIDKCTTTRENVSLFIHVRNQLGILWAGRDEIEKAQGFLEIAETMYLVYMKEDGQPPLDLQDFFVPEGESQSFTGVLQLRSAVLRGESRSQERCRNRARAEYGDGLPAPSEDQQNSIHSGLLQLKW”, the protein production entry is listed as “failed”.

As for “MAANVSGAKSCPANFLAAADDKLSGFQGDFLWPILVVEFLVAVASNGLALYRFSIRKQRPWHPAVVFSVQLAVSDLLCALTLPPLAAYLYPPKHWRYGEAACRLERFLFTCNLLGSVIFITCISLNRYLGIVHPFFARSHLRPKHAWAVSAAGWVLAALLAMPTLSFSHLKRPQQGAGNCSVARPEACIKCLGTADHGLAAYRAYSLVLAGLGCGLPLLLTLAAYGALGRAVLRSPGMTVAEKLRVAALVASGVALYASSYVPYHIMRVLNVDARRRWSTRCPSFADIAQATAALELGPYVGYQVMRGLMPLAFCVHPLLYMAAVPSLGCCCRHCPGYRDSWNPEDAKSTGQALPLNATAAPKPSEPQSRELSQ”, the protein production entry is on record as “failed”.

“MAAPLAPWRVSAFNTAKQSENKMHDDTVARRFGFTGGLVPGVEVMAYMMHLPVARWGRDFLERGLIEARFVKPVYDGETATVTGEEQGEAITLAVESRGELCATGSASLPVRAPAVDLGAYPETAAATNRPPVGAQSFPEGHWFGTAPVNWGGAKLRDYLDEIRETDPIYRSDDLIHPGTLQRIMNRVLVDNVVLGPWIHVGSKMQLLAAARGDDVLTARAKVVANYDKKGHRFAEFDALIVANGDRPVAHCHHVAIFAPRQQAAA”: the protein production result is recorded as “failed”.
